Consider 4 molecules from patent US20200171163A1 (Daiichi Sankyo, published 2020).

Where a chain is given by its changes, count along the chain named.

T1: EC3 deletion mutant of human CDH6 (human, UniProt P55285 54-790)
T1 construct: In p3×FLAG-CMV-9; also called EC3-deleted hCDH6
T1 sequence: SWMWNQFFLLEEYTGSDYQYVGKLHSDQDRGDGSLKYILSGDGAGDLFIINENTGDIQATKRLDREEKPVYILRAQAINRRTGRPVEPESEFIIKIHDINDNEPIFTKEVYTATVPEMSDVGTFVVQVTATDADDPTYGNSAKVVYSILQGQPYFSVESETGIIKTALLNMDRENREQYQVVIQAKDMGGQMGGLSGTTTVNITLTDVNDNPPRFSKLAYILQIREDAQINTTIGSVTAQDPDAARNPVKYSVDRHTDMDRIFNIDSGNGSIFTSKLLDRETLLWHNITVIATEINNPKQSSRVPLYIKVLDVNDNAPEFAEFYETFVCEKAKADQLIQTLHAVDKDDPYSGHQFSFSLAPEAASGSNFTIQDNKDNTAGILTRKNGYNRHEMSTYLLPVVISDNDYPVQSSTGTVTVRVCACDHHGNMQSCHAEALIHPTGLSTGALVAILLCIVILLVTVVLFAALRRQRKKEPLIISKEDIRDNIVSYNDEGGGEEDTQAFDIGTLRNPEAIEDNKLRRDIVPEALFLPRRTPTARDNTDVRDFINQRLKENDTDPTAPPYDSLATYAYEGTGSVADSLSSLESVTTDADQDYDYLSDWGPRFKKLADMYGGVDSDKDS

T2: human CDH6 (full-length, on cells) (human, UniProt P55285 54-790)
T2 construct: also called hCDH6; full-length hCDH6
T2 sequence: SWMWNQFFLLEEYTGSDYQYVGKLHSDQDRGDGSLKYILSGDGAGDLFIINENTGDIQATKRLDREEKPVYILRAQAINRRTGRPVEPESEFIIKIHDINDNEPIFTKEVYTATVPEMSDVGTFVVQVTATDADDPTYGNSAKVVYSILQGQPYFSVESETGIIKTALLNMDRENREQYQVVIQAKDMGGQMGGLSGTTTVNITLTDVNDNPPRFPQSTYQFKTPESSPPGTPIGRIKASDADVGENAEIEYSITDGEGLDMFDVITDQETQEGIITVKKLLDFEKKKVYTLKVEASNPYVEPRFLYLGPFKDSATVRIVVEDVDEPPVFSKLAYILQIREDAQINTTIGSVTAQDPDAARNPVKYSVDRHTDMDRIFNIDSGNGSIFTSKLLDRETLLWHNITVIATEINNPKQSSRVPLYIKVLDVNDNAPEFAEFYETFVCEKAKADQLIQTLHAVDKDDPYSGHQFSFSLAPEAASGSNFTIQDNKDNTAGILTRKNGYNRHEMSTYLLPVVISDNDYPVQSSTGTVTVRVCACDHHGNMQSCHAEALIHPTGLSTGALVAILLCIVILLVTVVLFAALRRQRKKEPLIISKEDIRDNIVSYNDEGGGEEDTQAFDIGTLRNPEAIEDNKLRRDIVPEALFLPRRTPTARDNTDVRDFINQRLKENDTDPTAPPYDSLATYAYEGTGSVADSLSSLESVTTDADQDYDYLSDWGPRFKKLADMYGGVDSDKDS

B1: H02L02 antibody (antibody, human IgG1, kappa, V domains shown)
VH: EVQLVQSGAEVKKPGASVKVSCKASGYTFTRNFMHWVRQAPGQGLEWMGWIYPGDGETEYNQKFQGRVTITADRSTSTAYMELSSLRSEDTAVYFCARGVYGGFAGGYFDFWGQGTLVTVSS
VL: DIQMTQSPSSLSASVGDRVTITCKASQNIYKNLAWYQQKPGKAPKLLIYDANTLQTGVPSRFSGSGSGSDFTLTISSLQPEDFATYFCQQYYSGWAFGQGTKVEIKR
notes: Humanized IgG1/kappa (hH02 + hL02); also called humanized hG019 antibody H02L02
B2: H02L03 antibody (antibody, human IgG1, kappa, V domains shown)
VH: B1 VH
VL: B1 VL with P40L, K42E, A43G, S69T, F87Y
notes: Humanized IgG1/kappa (hH02 + hL03); also called humanized hG019 antibody H02L03
B3: H01L02 antibody (antibody, human IgG1, kappa, V domains shown)
VH: B1 VH with N61A, R74T, F95Y
VL: B1 VL
notes: Humanized IgG1/kappa (hH01 + hL02); also called humanized hG019 antibody H01L02; labeled H01L02
B4: H04L02 antibody (antibody, human IgG1, kappa, V domains shown)
VH: B1 VH with E1Q, V37I, N61A, I70L, F95Y
VL: B1 VL
notes: Humanized IgG1/kappa (hH04 + hL02); also called humanized hG019 antibody H04L02

One experiment concerns the target T1, EC3 deletion mutant of human CDH6. Nature of the experiment: flow cytometry; 293α cells transfected with EC3-deleted hCDH6 (open) vs untransfected control cells (shaded); APC anti-human IgG. How it is done: The cells were cultured overnight under conditions of 37° C. and 5% CO₂, and thereafter, a cell suspension was prepared. […] Thereafter, the cells were suspended by the addition of each of the 4 humanized hG019 antibodies (clone Nos: H01L02, H02L02, H02L03 and H04L02), which had been prepared in Example 5)-5-3, or the anti-CDH6 antibody NOV0712, which had been prepared in Reference Example 1, or human IgG1 (Calbiochem) as a negative control. The cells were left standing at 4° C. for 1 hour. The cells were washed twice with PBS supplemented with 5% FBS, and then suspended by the addition of APC-anti-human IgG goat F(ab′)2 (Jackson ImmunoResearch Laboratories, Inc.) that had been 500-fold diluted with PBS supplemented with 5% FBS. The cells were left standing at 4° C. for 1 hour. The cells were washed twice with PBS supplemented with 5% FBS, followed by detection using a flow cytometer (Canto II; BD Biosciences). The data was analyzed using FlowJo (Tree Star, Inc.). In the histograms of FIGS. 7-1 to 7-6, the abscissa depicts APC fluorescence intensity indicating the amount of the antibody bound, and the ordinate depicts cell count. […] Fluorescence intensity is enhanced when the antibody binds to full-length hCDH6 or each EC domain deletion mutant on cell surface. The human IgG1 control binds to none of the transfected cells.
On the technique in general: Flow cytometry measures light scatter and fluorescence of single cells or particles in a stream.
Regarding B1, the binding result was “no binding (tested: not given (single concentration))”.
Still for that read-out and setting: as for B2, the entry is “no binding (tested: not given (single concentration))”.
Regarding B3, the binding result is on record as “no binding (tested: not given (single concentration))”.
Same read-out and setting: as for B4, the entry is “no binding (tested: not given (single concentration))”.

A further experiment has as its target T2, human CDH6 (full-length, on cells). Nature of the experiment: competition flow cytometry on 786-O/hCDH6 cells; competitor: Alexa 488-labeled H01L02 at 5 nM; unlabeled antibody varied [lower panel]. How it is done: Thereafter, the cells were suspended by the addition of labeled NOV0712 or labeled H01L02 (final concentration: 5 nM) and, further, the addition of each of the 4 humanized hG019 antibodies (clone Nos: H01L02, H02L02, H02L03 and H04L02), which had been prepared in Example 5)-5-3, or the anti-CDH6 antibody NOV0712, which had been prepared in Reference Example 1, or human IgG1 (Calbiochem) as a negative control (final concentration: as shown in the abscissa of FIG. 9). The cells were left standing at 4° C. for 1 hour. Thereafter, the cells were washed twice with PBS supplemented with 5% FBS, followed by detection using a flow cytometer (Canto II; BD Biosciences). The data was analyzed using FlowJo (Tree Star, Inc.). The abscissa depicts the final concentration of the added unlabeled antibody, and the ordinate depicts the amount of the antibody bound based on mean fluorescence intensity. When unlabeled NOV0712 is added to cells supplemented with labeled NOV0712, the amount of the labeled antibody bound is decreased by replacement with the unlabeled antibody in an addition concentration-dependent manner because they compete with each other for binding to the same epitope. […] Likewise, when each of the 4 unlabeled humanized hG019 antibodies is added to cells supplemented with labeled H01L02, the amount of the labeled antibody bound is decreased by replacement with the unlabeled antibody in an addition concentration-dependent manner because they compete with each other for binding to the same epitope.
In the case of B1, the “IC50 (read off the curve)” value was about 3 nM.
Still for that read-out and setting: the same measure for B2: about 10 nM; for B3: about 5 nM; for B4: about 10 nM.
